Data published in PMC2726748 (Journal of molecular biology, 2009).

Target: the molecule itself
Test: crystal structure

B1: recombinant mouse apoptosis inducing factor AIFΔ1–101 (domain or fragment, UniProt Q9Z0X1 102-612, looked up)
chain: GLSPEEKQRRAIASATEGGSVPQIRAPSHVPFLLIGGGTAAFAAARSIRARDPGARVLIVSEDPELPYMRPPLSKELWFSDDPNVTKTLQFRQWNGKERSIYFQPPSFYVSAQDLPNIENGGVAVLTGKKVVHLDVRGNMVKLNDGSQITFEKCLIATGGTPRSLSAIDRAGAEVKSRTTLFRKIGDFRALEKISREVKSITVIGGGFLGSELACALGRKSQASGIEVIQLFPEKGNMGKILPQYLSNWTMEKVKREGVKVMPNAIVQSVGVSGGRLLIKLKDGRKVETDHIVTAVGLEPNVELAKTGGLEIDSDFGGFRVNAELQARSNIWVAGDAACFYDIKLGRRRVEHHDHAVVSGRLAGENMTGAAKPYWHQSMFWSDLGPDVGYEAIGLVDSSLPTVGVFAKATAQDNPKSATEQSGTGIRSESETESEASEITIPPSAPAVPQVPVEGEDYGKGVIFYLRDKVVVGIVLWNVFNRMPIARKIIKDGEQHEDLNEVAKLFNIHED
stoichiometry N: 2
